Laboratory results published in patent publication US20240239881A1 (Innovent, published 2024).

T1: Human Ang1 (human, UniProt Q15389 20-498, limits assumed)
T1 construct: also called hAng1
T1 sequence (looked up): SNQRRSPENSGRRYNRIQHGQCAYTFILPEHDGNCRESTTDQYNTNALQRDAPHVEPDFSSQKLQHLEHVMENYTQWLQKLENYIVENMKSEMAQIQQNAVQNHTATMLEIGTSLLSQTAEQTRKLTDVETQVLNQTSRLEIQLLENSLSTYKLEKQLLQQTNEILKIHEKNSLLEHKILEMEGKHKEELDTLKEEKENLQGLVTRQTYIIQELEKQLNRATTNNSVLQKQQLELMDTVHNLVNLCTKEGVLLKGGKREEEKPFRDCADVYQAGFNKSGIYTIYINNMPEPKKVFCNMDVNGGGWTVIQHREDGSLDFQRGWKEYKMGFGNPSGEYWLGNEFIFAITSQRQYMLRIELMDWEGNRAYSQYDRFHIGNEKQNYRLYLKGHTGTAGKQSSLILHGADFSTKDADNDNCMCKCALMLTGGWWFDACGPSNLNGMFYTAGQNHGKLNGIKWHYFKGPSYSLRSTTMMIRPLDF

T2: recombinant biotinylated hAngiopoietin-2 protein (R&D, Cat. No.: BT623B/CF) (human, UniProt O15123 19-496, limits assumed, biotinylated (sites not given))
T2 construct: Bought protein; also called Biotin Ang2; human biotin Ang2 protein
T2 sequence: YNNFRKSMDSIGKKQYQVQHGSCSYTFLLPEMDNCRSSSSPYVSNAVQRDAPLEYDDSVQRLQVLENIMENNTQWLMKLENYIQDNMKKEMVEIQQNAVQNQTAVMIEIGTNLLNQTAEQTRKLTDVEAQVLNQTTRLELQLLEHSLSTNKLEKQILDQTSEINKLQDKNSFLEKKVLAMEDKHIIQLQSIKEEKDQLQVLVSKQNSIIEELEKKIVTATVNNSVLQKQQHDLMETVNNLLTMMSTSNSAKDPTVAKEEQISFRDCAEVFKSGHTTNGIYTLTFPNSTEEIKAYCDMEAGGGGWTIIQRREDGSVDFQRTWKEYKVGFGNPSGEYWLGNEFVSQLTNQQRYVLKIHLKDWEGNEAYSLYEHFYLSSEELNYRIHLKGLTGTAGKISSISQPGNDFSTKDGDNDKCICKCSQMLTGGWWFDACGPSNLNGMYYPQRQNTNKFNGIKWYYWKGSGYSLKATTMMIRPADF

T3: human Ang2 (human, UniProt O15123 19-496, limits assumed)
T3 construct: also called hAng2; h Ang2
T3 sequence: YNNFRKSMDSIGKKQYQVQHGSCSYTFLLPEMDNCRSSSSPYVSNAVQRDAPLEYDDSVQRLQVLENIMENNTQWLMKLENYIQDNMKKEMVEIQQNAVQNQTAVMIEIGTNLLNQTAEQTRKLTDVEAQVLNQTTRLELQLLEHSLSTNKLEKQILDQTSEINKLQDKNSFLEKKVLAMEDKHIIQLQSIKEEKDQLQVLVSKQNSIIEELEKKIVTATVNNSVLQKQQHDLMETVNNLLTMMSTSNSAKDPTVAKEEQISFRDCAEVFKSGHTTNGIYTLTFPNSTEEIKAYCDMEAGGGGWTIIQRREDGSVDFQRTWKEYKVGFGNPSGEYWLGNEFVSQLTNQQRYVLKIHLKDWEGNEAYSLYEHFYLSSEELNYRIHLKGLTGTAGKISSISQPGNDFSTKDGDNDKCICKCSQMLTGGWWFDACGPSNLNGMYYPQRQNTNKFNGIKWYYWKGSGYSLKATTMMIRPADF


Tests used:
Human Ang1 = target: T1, Human Ang1; test: ForteBio BLI, antibody on AHQ sensor
Method: (§1) The equilibrium dissociation constants (KD) of the above exemplary antibodies of the present invention binding to human Ang2 (h Ang2), cynomolgus monkey Ang2 (cAng2), murine Ang2 (mAng2), and human Ang1 (hAng1) were determined using the biological optical interferometry (ForteBio) assay.
(§2) The ForteBio affinity assay was performed according to the existing method (Estep, P et al., High throughput solution-based measurement of antibody-antigen affinity and epitope binning. MAbs, 2013.5 (2): p. 270-8). Briefly, the sensor was equilibrated in the assay buffer off-line for 30 min, followed by on-line detection for 60 s to establish the baseline. Then the purified antibodies obtained as described above were loaded on-line onto an AHQ sensor (ForteBio) for ForteBio affinity assay. The sensors with loaded antibodies were exposed to 100 nM of hAng2, cAng2, mAng2, and hAng1 antigens for 5 min, and then were transferred into the assay buffer for dissociation for 5 min to determine the dissociation rate. Kinetic analysis was performed using a 1:1 binding model.

[1] = target: T2, recombinant biotinylated …; test: blocking ELISA: antibody titrated against biotinylated hAng2 (300 ng/ml final); blocked binding to coated hTie2 protein; Avidin-HRP detection
Method: The abilities of 81H10, 86E9, 107H7, hz81H10.4, Amhz81H10.4.30, Amhz81H10.4.49, and the control antibodies Nesvacumab and faricimab to block the binding of human Ang2 to hTie2 were determined by ELISA. Faricimab is a bispecific antibody drug undergoing a clinical trial and developed by Roche, which targets both angiopoietin-2 (Ang-2) and VEGF-A.
Then the plate was blocked using 5% BSA for 1 h. The biotinylated antigen, recombinant biotinylated hAngiopoietin-2 protein (R&D, Cat. No.: BT623B/CF), was diluted to 600 ng/ml, and was added into the microtiter plate at 50 μl/well. The antibodies (81H10, 86E9, 107H7, hz81H10.4, Amhz81H10.4.30 and Amhz81H10.4.49) prepared as described above were gradiently diluted with a total of 8 or 12 dilution points starting from the highest concentration, and then added to the microtiter plate at 50 μl/well, and incubated in PBS on ice for 30 min. Then, 50 ul of antigen solution was added to the microtiter plate, in which the final antigen concentration was 300 ng/ml. The plate containing the antigen-antibody mixture was incubated for 90 min. After three washes with PBS, the supernatant was discarded, and Avidin-HRP (Invitrogen) diluted at 1:10000 was added at 100 μl/well, then incubated at room temperature for 30 min. PBS was used to wash the plate six times. Then TMB chromogen solution (solarbio) was added at 100 ul/well to allow for chromogenic reaction for 1 min, then the reaction was terminated with the addition of stop solution (solarbio) at 100 ul/well.

human Ang2 = target: T3, human Ang2; test: ForteBio BLI, antibody on AHQ sensor, 100 nM antigen, 1:1 model
Method: as §1, §2

[2] = target: T2, recombinant biotinylated …; test: ELISA: biotin Ang2 (R&D BT623B/CF) captured on coated streptavidin (SA), antibody titrated, anti-human IgG-HRP, OD450-OD620, GraphPad fit
Method: The binding of 81H10 and hz81H10.4 of the present invention to human biotin Ang2 protein was measured in an SA-biotin Ang2-based ELISA assay.
SA protein (Thermo Fisher) was diluted to 1 μg/ml with PBS, and was coated onto a microtiter plate at 100 μl/well at 4° C. overnight. After three washes with PBST, the plate was blocked with 5% BSA for 1 h. Biotin Ang2 (R&D, Cat. No. BT623B/CF) was incubated at a concentration of 0.5 μg/ml for 1 h. Gradient diluted antibodies (maximum concentration 20 nM, 1:3 serial dilution) were added to the microtiter plate and incubated for 2 h, and the plate was washed three times with PBST. […] Then the plate was washed for 6 times with PBST. Chromogenic reaction was performed with 100 ul TMB and terminated with 100 ul 2N sulfuric acid. The reading of OD₄₅₀-OD₆₂₀ was taken by microplate reader. The concentration-dependent curve was fitted with GraphPad based on the OD₄₅₀-OD₆₂₀.

Row | binding result (Human Ang1) | IC50 [1] [nM] | Kd (human Ang2) [nM] | EC50 [2] [nM] | Binder
1 | no binding (tested: 100 nM) | 0.506 | 0.647 |  | affinity matured antibody Amhz81H10.4.49 (antibody, human IgG1, kappa, V domains shown, also called Am81H10.4.49) VH: EVQLVESGGGLVKPGGSLRLSCAASGFTFQNYWANWVRQAPGKGLEWVAEIRLKSNNYATHYAESVKGRFTISRDVSKNTVYLQMNSLKTEDTAVYYCTDTTPAAYWGQGTLVTVSS VL: DIQMTQSPSSLSASVGDRVTITCKASQDVWTDVAWYQQKPGKAPKLLIYWGSTRWTGVPSRFSGSGSGTDFTLTISSLQPEDFATYYCQQTNIYPLTFGGGTKVEIKR
2 | no binding (tested: 100 nM) | 5.29 | 7.63 |  | chimeric antibody 86E9 (antibody, human IgG1, kappa) heavy: not shown light: DIVMTQSHKFLSTSVGARVSITCKASQDVGTDVAWYQQKPGQSPKLLIYWASTRHTGVPDRFTGSGSGTDFTLTISNVQSEDLSDYFCQQYSSYPLTFGGGTKLEIKRTVAAPSVFIFPPSDEQLKSGTASVVCLLNNFYPREAKVQWKVDNALQSGNSQESVTEQDSKDSTYSLSSTLTLSKADYEKHKVYACEVTHQGLSSPVTKSFNRGEC
3 | no binding (tested: 100 nM) | 9.15 | 7.75 |  | chimeric antibody 107H7 (antibody, human IgG1, kappa) heavy: not shown light: DIVMTQTPKFLSTSVGARVSITCKASQDVGTDVAWYQQKPGQSPKLLIYWASTRHTGVPDRFTGSGSGTDFTLTISNVQSEDLSDYFCQQYSSYPLTFGGGTKLEIKRTVAAPSVFIFPPSDEQLKSGTASVVCLLNNFYPREAKVQWKVDNALQSGNSQESVTEQDSKDSTYSLSSTLTLSKADYEKHKVYACEVTHQGLSSPVTKSFNRGEC
4 | no binding (tested: 100 nM) | 1.32 | 6.92 | 0.0142 | chimeric antibody 81H10 (antibody, human IgG1, kappa, V domains shown) VH: EVKLEESGGGLVQPGGSMKLSCVASGFTFSNYWMNWVRQSPEKGLEWVAEIRLKSNNYATHYAESVKGRFTISRDVSKSSVYLQMNNLRTEDTGIYYCTDTAPFAYWGQGTLVTVSA VL: DIVMTQSHKFMSTSVGDRVSITCKASQDVGTDVAWYQQKPGQSPKLLIYWASTRHTGVPDRFTGSGSGTDFTLTISNVQSEDLSDYFCQQYSSYPLTFGGGTKLEIKR
